{"source": "paper PMC4951027", "binders": {"B1": {"name": "Fn + FnBPA-10 (FnBPA-10-bound Fn) (complex)", "chain 1": "not shown", "chain 2": "not shown", "chain 3": "KYEHGGNIIDIDFDSVPHIHGFNKHTEIIEEDTNKDKP"}}, "target": "ecto-domain of integrin α5β1-Fc fusion protein", "test": "SPR", "data": [{"binder": "B1", "values": [{"measurement": "Kd", "result": 260, "unit": "nM"}, {"measurement": "ka1 (first step, bivalent analyte model)", "result": 61000, "unit": "M⁻¹ s⁻¹"}, {"measurement": "ka2 (second step, bivalent analyte model)", "result": "1.3e-05", "unit": "RU^-1s^-1"}, {"measurement": "kd1 (first step, bivalent analyte model)", "result": 0.015, "unit": "s⁻¹"}, {"measurement": "kd2 (second step, bivalent analyte model)", "result": 0.001, "unit": "s⁻¹"}]}]}
